Assays:
[1] = test system: CCHFV nucleoprotein (NP) (Crimean-Congo hemorrhagic fever orthonairovirus); experiment: fluorescence anisotropy
[2] = test system: CCHFV nucleoprotein (NP) (Crimean-Congo hemorrhagic fever orthonairovirus); experiment: competition fluorescence anisotropy

With 27-mer RNA the Kd [1] was 0.19 µM and the IC50 [2] was 0.197 µM.

48-mer RNA showed a Kd [1] of 0.23 µM and an IC50 [2] of 0.167 µM.
